Reference: patent EP4813396A2 (Amphivena Therapeutics, Inc., dated 2026)
Numbering of substitutions follows the chain as printed. Several values for one entry are separate records, joined by “and”; a condition that tells them apart may be missing. Identical values can stand only once.

B1: CD33/CD3 tandem diabody 12 (bispecific antibody)
chain: DIQMTQSPSSLSASVGDRVTITCRSSTGAVTTSNYANWVQQKPGKAPKALIGGTNKRAPGVPSRFSGSLIGDKATLTISSLQPEDFATYYCALWYSNLWVFGQGTKVEIKGGSGGSQVQLVQSGAEVKKPGASVKVSCKASGYTFTSYDINWVRQAPGQGLEWMGWMNPNSGNTGFAQKFQGRVTMTRDTSTSTVYMELSSLRSEDTAVYYCARDRAVTDYYYGMDVWGQGTLVTVSSGGSGQSVLTQPPSASGTPGQRVTISCSGSRSNIGSNTVNWYQQLPGTAPKLLIYGNNQRPSGVPDRFSGSKSGTSASLAISGLQSEDEADYYCATWDDSLIGWVFGGGTKLTVLGGSGGSEVQLVESGGGLVQPGGSLRLSCAASGFTFSTYAMNWVRQAPGKGLEWVGRIRSKYNNYATYYADSVKDRFTISRDDSKNSLYLQMNSLKTEDTAVYYCARHGNFGNSYVSYFAYWGQGTLVTVSSAAAGSHHHHHH
notes: Non-covalent homodimer; domain order 1; also called TandAb 12
B2: CD33/CD3 tandem diabody 14 (bispecific antibody)
chain: B1 chain with V218N, Y221F, Y222S, T312S
notes: Non-covalent homodimer; domain order 1; also called TandAb 14
B3: CD33/CD3 tandem diabody 16 (bispecific antibody)
chain: B1 chain with V218N, Y222S, Y223L
notes: Non-covalent homodimer; domain order 1; also called TandAb 16
B4: CD33/CD3 tandem diabody 19 (bispecific antibody)
chain: DIQMTQSPSSLSASVGDRVTITCRSSTGAVTTSNYANWVQQKPGKAPKALIGGTNKRAPGVPSRFSGSLIGDKATLTISSLQPEDFATYYCALWYSNLWVFGQGTKVEIKGGSGGSQVQLVQSGAEVKKPGASVKVSCKASGYTFTSYYMHWVRQAPGQGLEWMGIINPSGGSTSYAQKFQGRVTMTRDTSTSTVYMELSSLRSEDTAVYYCARDVVPAAIDYYGMDVWGQGTTVTVSSGGSGQSVLTQPPSASGTPGQRVTISCSGSSSNIGSNTVNWYQQLPGTAPKLLIYSDNQRPSGVPDRFSGSKSGSSASLAISGLQSDDEADYYCATWDDSLNGAVFGGGTKLTVLGGSGGSEVQLVESGGGLVQPGGSLRLSCAASGFTFSTYAMNWVRQAPGKGLEWVGRIRSKYNNYATYYADSVKDRFTISRDDSKNSLYLQMNSLKTEDTAVYYCARHGNFGNSYVSYFAYWGQGTLVTVSSAAAGSHHHHHH
notes: Non-covalent homodimer; domain order 1; also called TandAb 19

Legend:
human CD3 on T cells [1] = target: T1, human CD3 on T cells (human, UniProt P07766 23-207); assay: flow cytometry, titration on human CD3+ T cells (Jurkat per paragraph 124/paragraph 125)
T1 construct: whole, on cells; also called hu CD3; CD3 on Jurkat cells

human CD33 on cells [2] = target: T2, human CD33 on cells (human, UniProt P20138 18-364); assay: cell-based or functional assay
human CD33 on cells [3] = target: T2, human CD33 on cells; assay: flow cytometry, titration on HL-60 cells
human CD33 on cells [4] = target: T2, human CD33 on cells; assay: cell-based or functional assay; remark: listed apart in the source
human CD33 on cells [5] = target: T2, human CD33 on cells; assay: flow cytometry, titration on KG-1 cells
human CD33 on cells [6] = target: T2, human CD33 on cells; assay: flow cytometry, HL-60 cells
human CD33 on cells [7] = target: T2, human CD33 on cells; assay: flow cytometry, titration on U-937 cells
human CD33 on cells [8] = target: T2, human CD33 on cells; assay: cell-based or functional assay; remark: listed apart in the source
human CD33 on cells [9] = target: T2, human CD33 on cells; assay: cell-based or functional assay; remark: listed apart in the source
[10] = target: cynomolgus CD33 on CHO cells (cynomolgus monkey); assay: flow cytometry; KD on CHO-cynomolgus CD33 cells divided by KD on CHO-human CD33 cells
human CD3 on T cells [11] = target: T1, human CD3 on T cells; assay: cell-based or functional assay
human CD3 on T cells [12] = target: T1, human CD3 on T cells; assay: flow cytometry, human T-cells (as headed in Table 10)
human CD33 on cells [13] = target: T2, human CD33 on cells; assay: cell-based or functional assay; remark: listed apart in the source

T1 sequence (P07766 23-207): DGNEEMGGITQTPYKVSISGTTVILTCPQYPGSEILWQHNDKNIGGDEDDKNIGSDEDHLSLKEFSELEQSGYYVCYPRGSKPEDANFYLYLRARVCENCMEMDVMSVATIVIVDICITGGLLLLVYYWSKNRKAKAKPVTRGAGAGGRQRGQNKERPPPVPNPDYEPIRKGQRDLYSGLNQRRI
T2 sequence (P20138 18-364): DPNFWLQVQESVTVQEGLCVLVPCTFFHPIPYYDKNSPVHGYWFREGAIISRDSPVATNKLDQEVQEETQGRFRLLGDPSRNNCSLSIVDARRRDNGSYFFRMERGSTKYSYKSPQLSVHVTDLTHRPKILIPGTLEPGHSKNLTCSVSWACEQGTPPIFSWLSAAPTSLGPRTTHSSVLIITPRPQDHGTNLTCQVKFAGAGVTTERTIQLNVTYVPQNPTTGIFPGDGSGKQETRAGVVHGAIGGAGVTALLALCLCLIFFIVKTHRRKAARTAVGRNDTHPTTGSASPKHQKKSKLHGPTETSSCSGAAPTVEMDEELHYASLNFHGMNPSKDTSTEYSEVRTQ

Binder | Kd (human CD3 on T cells [1]) [pM] | EC50 on HL-60 [pM] (cytotoxicity) (human CD33 on cells [2]) | Kd (human CD33 on cells [3]) [pM] | EC50 [pM] mean, cytotoxicity on BV-173 cells (human CD33 on cells [4]) [pM] | EC50 [pM] mean, cytotoxicity on CHO-CD33 cells (human CD33 on cells [4]) [pM] | EC50 [pM] mean, cytotoxicity on HL-60 cells (human CD33 on cells [4]) [pM] | EC50 [pM] mean, cytotoxicity on K562 cells (human CD33 on cells [4]) [pM] | Kd (human CD33 on cells [5]) [pM] | Kd (human CD33 on cells [6]) [pM] | Kd (human CD33 on cells [7]) [pM] | IC50, lysis of KG-1 cells with human T cells (E:T 5:1, 24 h) (human CD33 on cells [8]) [pM] | EC50 [pM (pg/mL)] on human CD33+ target cell lines: HL-60 (cytotoxicity, E:T 5:1, 20-24 h) (human CD33 on cells [9]) | EC50 [pM (pg/mL)] on human CD33+ target cell lines: KG-1 (cytotoxicity, E:T 5:1, 20-24 h) (human CD33 on cells [9]) | EC50 [pM (pg/mL)] on human CD33+ target cell lines: U-937 (cytotoxicity, E:T 5:1, 20-24 h) (human CD33 on cells [9]) | EC50 [pM (pg/mL)] on human CD33+ target cell lines: mean of HL-60, U-937, KG-1 (human CD33 on cells [9]) | KD ratio cynoCD33/ huCD33 [10] | CD25 Induction EC50 (pM) (human CD3 on T cells [11]) | CD69 Induction EC50 (pM) (human CD3 on T cells [11]) | T cell Proliferation in PBMC EC50 (pM) (human CD3 on T cells [11]) | Kd (human CD3 on T cells [12]) [pM] | also measured
B1 | 1500 | 1.3 | 300 | 1.4 | 11.8 | 1.4 | 4.5 | 900 | 300 | 500 | ~0.01 | 1.3 pM and 137 pg/mL | 1.2 pM and 126 pg/mL | 0.8 pM and 84 pg/mL | 1.1 pM and 116 pg/mL | 1.7 | 6 | 3 | 2 | 1500 | EC50 [pM] mean, cytotoxicity on KASUMI-1 cells (human CD33 on cells [4]): 1.3 pM; EC50 [pM] mean, cytotoxicity on KG-1 cells (human CD33 on cells [4]): 1 pM; EC50 [pM] mean, cytotoxicity on RPMI-8226 cells (human CD33 on cells [4]): 14 pM; EC50 [pM] mean, cytotoxicity on THP-1 cells (human CD33 on cells [4]): 1.9 pM; EC50 [pM] mean, cytotoxicity on U-937 cells (human CD33 on cells [4]): 0.9 pM
B2 | 2100 | 1.6 | 300 | – | – | – | – | 300 | 300 | 1200 | – | 1.6 pM and 168 pg/mL | 2.6 pM and 273 pg/mL | 3.6 pM and 378 pg/mL | 2.6 pM and 273 pg/mL | 1 | 10 | 7 | 6 | 2100 | –
B3 | 2100 | 1.5 | 300 | 3.2 | 24 | 1.6 | 4.8 | 200 | 300 | 300 | ~0.5 | 1.5 pM and 158 pg/mL | 1.8 pM and 189 pg/mL | 1.9 pM and 200 pg/mL | 1.7 pM and 179 pg/mL | 1.4 | 1 | 2 | 3 | 5100 | EC50 [pM], calcein release, HL-60 targets, E:T 25:1, incubation 30 min (human CD33 on cells [13]): 4.8 pM; EC50 [pM], calcein release, HL-60 targets, E:T 25:1, incubation 60 min (human CD33 on cells [13]): 2.5 pM; EC50 [pM], calcein release, HL-60 targets, E:T 25:1, incubation 120 min (human CD33 on cells [13]): 1.6 pM; EC50 [pM], calcein release, HL-60 targets, E:T 25:1, incubation 180 min (human CD33 on cells [13]): 1.6 pM; EC50 [pM], calcein release, HL-60 targets, E:T 25:1, incubation 240 min (human CD33 on cells [13]): 1.5 pM; EC50 [pM], calcein release, HL-60 targets, E:T 25:1, incubation 300 min (human CD33 on cells [13]): 1.6 pM; EC50 [pM] mean, cytotoxicity on KASUMI-1 cells (human CD33 on cells [4]): 2.4 pM; EC50 [pM] mean, cytotoxicity on KG-1 cells (human CD33 on cells [4]): 1.9 pM; EC50 [pM] mean, cytotoxicity on RPMI-8226 cells (human CD33 on cells [4]): 2.8 pM; EC50 [pM] mean, cytotoxicity on THP-1 cells (human CD33 on cells [4]): 6 pM; EC50 [pM] mean, cytotoxicity on U-937 cells (human CD33 on cells [4]): 1.3 pM; IC50, lysis of KG-1 cells (separate experiment) (human CD33 on cells [8]): 5 pM
B4 | 6300 | 5.7 | 2800 | – | – | – | – | 3600 | 2800 | 5400 | ~5 | – | – | – | – | 37.3 | 9 | 5 | 6 | 6300 | –
